Experiment [1] addresses T1, BV2373 (recombinant CoV S glycoprotein, Prototype) (SARS-CoV-2, UniProt P0DTC2 14-1273). In words: hACE2 receptor inhibition ELISA on coated rS; competitor hACE2-His. (In an ELISA, binding on a coated surface is turned into a signal by an enzyme label.)
The target in experiment [2] is T2, BV2541 (recombinant CoV S glycoprotein, BA.4) (SARS-CoV-2, UniProt P0DTC2 14-1273). The description is as above.
Experiment [3] addresses T3, BV2465 (recombinant CoV S glycoprotein, Delta) (SARS-CoV-2, UniProt P0DTC2 14-1273). Described as above.
Experiment [4] addresses T2, BV2541 (recombinant CoV S glycoprotein, …). Briefly: ELISA on coated rS.
Experiment [5] addresses BV2589 (recombinant CoV S glycoprotein, BQ.1.1) (SARS-CoV-2, UniProt P0DTC2 14-1273). Briefly: hACE2 receptor inhibition ELISA on coated rS; competitor hACE2-His.
The target of experiment [6] is BV2562 (recombinant CoV S glycoprotein, BA.4.6) (SARS-CoV-2, UniProt P0DTC2 14-1273). The description is as above.
Experiment [7] deals with BV2509 (recombinant CoV S glycoprotein, BA.1) (SARS-CoV-2, UniProt P0DTC2 14-1273). The experiment is described as above.
Experiment [8] addresses BV2523 (recombinant CoV S glycoprotein, BA.2) (SARS-CoV-2, UniProt P0DTC2 14-1273). Described as above.
For experiment [9], the target named is T2, BV2541 (recombinant CoV S glycoprotein, …). Described as above. This is another data set of the same source.
The target of experiment [10] is BV2561 (recombinant CoV S glycoprotein, BA.2.75) (SARS-CoV-2, UniProt P0DTC2 14-1273). Described as above.
The target in experiment [11] is BV2542 (recombinant CoV S glycoprotein, BA.2.12.1) (SARS-CoV-2, UniProt P0DTC2 14-1273). The experiment is described as above.
Experiment [12] has as its target BV2540 (recombinant CoV S glycoprotein, BA.5) (SARS-CoV-2, UniProt P0DTC2 14-1273). The description is as above.
The target in experiment [13] is T1, BV2373 (recombinant CoV S glycoprotein, …). Briefly: BLI, antibody on anti-mouse Fc biosensor, rS analyte. A general note: In BLI a coated tip is dipped into the sample, and binding shifts an interference pattern.
Experiment [14] concerns the target T4, BV2425 (recombinant CoV S glycoprotein, Alpha) (SARS-CoV-2, UniProt P0DTC2 14-1273). The experiment is described as above.
Experiment [15] concerns the target T3, BV2465 (recombinant CoV S glycoprotein, …). The description is as above.
The target in experiment [16] is T5, BV2443 (recombinant CoV S glycoprotein, Gamma) (SARS-CoV-2, UniProt P0DTC2 14-1273). The experiment is described as above.
Experiment [17] concerns the target Delta Plus CoV S glycoprotein (recombinant) (Severe acute respiratory syndrome …, UniProt P0DTC2 14-1273).
The target in experiment [18] is T4, BV2425 (recombinant CoV S glycoprotein, …). In words: ELISA, plate coated with rS, serial dilution of the mAb, anti-mouse HRP, A450.
Experiment [19] deals with BV2438 (recombinant CoV S glycoprotein, Beta) (SARS-CoV-2, UniProt P0DTC2 14-1273). The description is as above.
For experiment [20], the target named is T3, BV2465 (recombinant CoV S glycoprotein, …). Described as above.
In experiment [21] the target is T5, BV2443 (recombinant CoV S glycoprotein, …). The description is as above.

Read-outs that look alike come from different tables or passages of the source.

B1: 199.9 (antibody, V domains shown)
VH: LVQLQQPGAELVKPGASVKLSCKASGYTFTSYFMYWVRQRPGQGLEWIGEINPSNGGNDFNEKFKSKATLTVDKSSSTAYMQLSSLTSEDSAVYYCTRSGDYGYDGFAYWGQGTLVTVSA
VL: NIVLTQSPASLAVSLGQRATISCRASESVDTYGNSFMHWYQQKPGQPPKLLIYLASNLESGVPARFSGSGSRTDFTLTIDPVEADDAATYYCQQNNEDPLTFGAGTKLELK
With B1, the values for the IC50 in experiment [1], in [2] and in experiment [3] were more than 3 mg/L, 0.038 mg/L and more than 3 mg/L, respectively. Further, the EC50 in experiment [4] is 0.016 mg/L.

B2: 239.12 (antibody, V domains shown)
VH: EVKLEESGPVLVKPSQSLSLTCTVTGYSITSDYAWNWIRQFPGNKLEWMGYISNSAGTSYNPSLKSRISITRDTSKNQFFLQLNSVTTEDTATYYCASGGWSSYYAMDYWGQGTSVTVSS
VL: DIQMTQSPASLSASVGETVTITCGASENIYGALNWYQRKQGKSPQLLIYGATNLADGMSSRFSGSGSGRQYSLKISSLHPDDVATYYCQNVLSTPYTFGGGTKLEIKR
With B2, the half-inhibitory concentration (IC50) in experiment [5] is more than 3 mg/L; in [6], more than 5 mg/L; in experiment [7] it was more than 3 mg/L; in experiment [8], more than 3 mg/L; in experiment [9] it was more than 3 mg/L; in experiment [10], more than 5 mg/L. The values for the IC50 in [11] and in experiment [12] were more than 3 mg/L and more than 5 mg/L, respectively. Further, the Kd in [13] was found to be 3.81 pM; in experiment [14], 2.26 pM; in [15], 3.45 pM; in experiment [16] it was 4.31 pM. Further, the koff in [13] was determined as 1.79e-07 s⁻¹; in experiment [14] it was 1.62e-07 s⁻¹; in experiment [16], 1.25e-07 s⁻¹. For the same molecule, the kon is 52900 M⁻¹ s⁻¹ in experiment [13], 72800 M⁻¹ s⁻¹ in experiment [14] and 29400 M⁻¹ s⁻¹ in experiment [16]. The EC50 in [17] was 0.0199 mg/L; in experiment [18] it was approximately 5 mg/L; in experiment [19], more than 5 mg/L; in [20] it was 0.025 mg/L; in experiment [21], approximately 5 mg/L.

For orientation: IC50 means the midpoint of a concentration-inhibition curve. The EC50 is the midpoint of the concentration-response curve. As a reminder, the Kd is the free concentration of one partner at which half of the binding sites on the other are occupied at equilibrium, for simple one-to-one binding. In general, koff refers to the first-order rate constant of dissociation. For orientation: kon means the rate constant with which the complex forms.

Source of the values: patent US20250066456A1 (NOVAVAX, published 2025).
